From patent US20250361297A1 (ADAPTAM THERAPEUTICS S L, published 2025)

T1: mouse Siglec-15, full length, expressed on HEK293T cells (mouse)
T1 construct: also called mS15; HEK293T cells expressing mouse Siglec-15
T1 chain: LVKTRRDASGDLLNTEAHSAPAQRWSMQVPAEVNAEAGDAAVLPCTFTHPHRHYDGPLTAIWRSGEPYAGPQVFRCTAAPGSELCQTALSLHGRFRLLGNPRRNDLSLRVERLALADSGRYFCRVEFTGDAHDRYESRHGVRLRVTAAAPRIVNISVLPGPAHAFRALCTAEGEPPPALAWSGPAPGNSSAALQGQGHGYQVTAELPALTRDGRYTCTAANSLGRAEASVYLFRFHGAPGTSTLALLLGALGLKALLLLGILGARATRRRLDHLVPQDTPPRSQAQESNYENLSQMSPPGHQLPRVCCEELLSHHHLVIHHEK

T2: human Siglec-15, full length, expressed on cells (human, UniProt Q6ZMC9 20-328)
T2 construct: also called hS15; MOLM-13 Siglec-15 expressing cells
T2 sequence: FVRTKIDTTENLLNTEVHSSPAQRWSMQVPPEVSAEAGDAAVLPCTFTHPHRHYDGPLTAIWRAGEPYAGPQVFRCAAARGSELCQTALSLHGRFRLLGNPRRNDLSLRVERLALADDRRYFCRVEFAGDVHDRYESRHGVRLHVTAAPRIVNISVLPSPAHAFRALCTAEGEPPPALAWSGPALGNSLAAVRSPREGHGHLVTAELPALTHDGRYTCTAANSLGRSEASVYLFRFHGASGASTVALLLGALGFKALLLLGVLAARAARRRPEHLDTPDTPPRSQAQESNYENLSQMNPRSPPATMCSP

T3: truncated human Siglec-15 comprising only domain 2 (D2), expressed on HEK293T cells (human, UniProt Q6ZMC9 168-251, limits assumed)
T3 construct: also called domain 2-only human Siglec-15; Siglec-15 Domain 2 (D2) HEK293T cells
T3 sequence: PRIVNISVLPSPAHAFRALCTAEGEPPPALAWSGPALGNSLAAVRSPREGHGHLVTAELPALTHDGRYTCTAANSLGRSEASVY

T4: recombinant Siglec-15 (bispecific antibody affinity assay) (Homo sapiens (Human), UniProt Q6ZMC9 20-263, limits assumed)
T4 sequence: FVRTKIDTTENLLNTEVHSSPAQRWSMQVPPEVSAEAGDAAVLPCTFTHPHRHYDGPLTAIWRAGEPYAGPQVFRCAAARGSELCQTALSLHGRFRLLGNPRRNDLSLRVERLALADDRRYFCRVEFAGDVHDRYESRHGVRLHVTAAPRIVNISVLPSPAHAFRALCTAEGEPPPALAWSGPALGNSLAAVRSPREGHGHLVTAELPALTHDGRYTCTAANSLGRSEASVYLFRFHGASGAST

B1: ZLA-1243-A01 (antibody, V domains shown)
VH: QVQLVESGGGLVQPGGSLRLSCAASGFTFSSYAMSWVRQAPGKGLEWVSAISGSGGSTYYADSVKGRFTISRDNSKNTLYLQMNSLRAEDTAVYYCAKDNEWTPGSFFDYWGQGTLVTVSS
VL: QSALTQPASVSGSPGQSITISCTGTSSDVGGYNYVSWYQQHPGKAPKLMIYDVSNRPSGVSNRFSGSKSGNTASLTISGLQAEDEADYYCSSYTSSSTRVFGGGTKVTVL
notes: Fully human, from phage display; tested as full-length human IgG1 with silenced Fc (E233P, L234V, L235A, G236 deletion, D265G, A327Q, A330S, C-terminus lysine deletion)
B2: A2A5C7E8-3 (antibody, V domains shown)
VH: EVQLVQSGAEVKKPGESLRISCKGSGYSFTTYWISWVRQMPGKGLEWMGLIDPSDSYTNYSPSFKGHVTISTDKSISTAYLQWSSLKASDTAMYYCARGGYYGSEEDYWGQGTLVTVSS
VL: EIVLTQSPGTLSLSPGERATLSCRASQSVSSSRLAWFQQKSGQAPRLLIFDASSRATGIPDRFSGSGSGTDFTLTISRLEPEDFAVYYCQQYGSSPRTFGQGTKVEFKR
B3: parental anti-CD3 antibody (humanized SP34 CD3 antibody) (antibody, V domains shown)
VH: EVQLVESGGGLVKPGGSLRLSCAASGFTFNTYAMNWVRQAPGKGLEWVARIRSKYNNYATYYADSVKDRFTISRDDSKNTLYLQMNSLKTEDTAVYYCVRHGNFGNSYVSWFAYWGQGTLVTVSS
VL: QTVVTQEPSFSVSPGGTVTLTCRSSTGAVTTSNYANWVQQTPGQAPRGLIGGTNKRAPGVPARFSGSILGNKAALTITGAQADDEAEYFCALWYSNLWVFGGGTKLTVL
notes: also called anti-human CD3 humanized antibody; anti-CD3 mAb
B4: S15B1-MMAE ADC (other)
VH: QVQLQQSGPELVKPGASVKISCKASGYAFSSSWMNWVKQRPGKGLEWIGRIYPGHGETNYNGKFKDKATVTADKSSSTTYMQLSSLTSEDSAVYFCARVDNSDPYYFDYWGQGTTLTVSS
VL: DIVLTQSPASLAVSLGQRATISCRASKSVSTSGYSYMHWYQQKPGQPPKLLIYLASNLESGVPARFSGSGSGTDFTLNIHPVEEEDAATYYCQHGRELPFTFGSGTKLEIK
modifications: vc-MMAE payload linker conjugated to the antibody; residue not stated
notes: Antibody-drug conjugate; also called S15B1-based antibody-drug conjugate with MMAE
B5: 5G12 (antibody, V domains shown)
VH: QVQLQQPGAELVKPGASVKMSCKASGYTFTSYWITWVIQRPGQGLEWIGDIYCGSDTMHYNEKFKNKATLTVDTSSSTAYMQLSSLTSEDSAVYYCARWWDYGSSYDYFDYWGQGTTLTVSS
VL: DIKMTQSPSSMYASLGERVTITCKASQDINSYLSWFQQKPGKSPKTLIYRANRLVDGVPSRFSGSGSGQDYSLTISSLEYEDMGIYYCLQYDEFPYTFGGGTKLEIKR
B6: BsAb-1 (bispecific antibody, human IgG1, kappa, lambda, L234A L235A)
light 1: not shown
heavy 1: QVQLQQSGPELVKPGASVKISCKASGYAFSSSWMNWVKQRPGKGLEWIGRIYPGHGETNYNGKFKDKATVTADKSSSTTYMQLSSLTSEDSAVYFCARVDNSDPYYFDYWGQGTTLTVSSASTKGPSVFPLAPSSKSTSGGTAALGCLVKDYFPEPVTVSWNSGALTSGVHTFPAVLQSSGLYSLSSVVTVPSSSLGTQTYICNVNHKPSNTKVDKKVEPKSCDKTHTCPPCPAPEAAGGPSVFLFPPKPKDTLMISRTPEVTCVVVDVSHEDPEVKFNWYVDGVEVHNAKTKPREEQYNSTYRVVSVLTVLHQDWLNGKEYKCKVSNKALPAPIEKTISKAKGQPREPQVCTLPPSRDELTKNQVSLSCAVKGFYPSDIAVEWESNGQPENNYKTTPPVLDSDGSFFLVSKLTVDKSRWQQGNVFSCSVMHEALHNHYTQKSLSLSPGK
heavy 2: not shown
light 2: QTVVTQEPSFSVSPGGTVTLTCRSSTGAVTTSNYANWVQQTPGQAPRGLIGGTNKRAPGVPARFSGSILGNKAALTITGAQADDEAEYFCALWYSNLWVFGGGTKLTVLASTKGPSVFPLAPSSKSTSGGTAALGCLVKDYFPEPVTVSWNSGALTSGVHTFPAVLQSSGLYSLSSVVTVPSSSLGTQTYICNVNHKPSNTKVDKKVEPKSC
notes: S15B1 arm and humanized SP34 anti-CD3 arm; also called anti-Siglec-15/CD3 bispecific antibody, Format-1: KIH & CrossmAb

How the values were obtained:
[1] = biological target: T1, mouse Siglec-15, full length, expressed …; experiment: IgG1 titration, flow cytometry on HEK293T cells expressing mouse Siglec-15
Protocol: The antibodies were titrated against HEK293T cells expressing mouse Siglec-15 or HEK293T cells expressing a truncated human Siglec-15 consisting solely of domain 2 (FIG. 9).
For the ELISA, antigens were immobilized on high-binding plates, and the full-length IgG1 anti-Siglec-15 antibodies were titrated beginning at a concentration of 10 μg/ml. After washing, an anti-human IgG Fab-specific HRP-conjugated secondary antibody was applied for detection. Palivizumab was included as the negative control. Optical densities were measured to generate binding curves from which EC50 values were derived. In the flow cytometry assay, MOLM-13 cells expressing human Siglec-15 and MOLM-13 wild-type cells (negative control) were incubated with titrated antibodies starting at 10 μg/ml. After incubation, cells were washed and incubated with an anti-human Fc-specific secondary antibody conjugated with a fluorescent marker. Flow cytometric analysis was conducted, and fluorescence intensity was used to calculate EC50 values, providing a quantitative assessment of the antibodies' cell surface binding efficacy. HEK293T cells were genetically engineered to express full-length mouse Siglec-15 and a truncated version of human Siglec-15 encompassing only domain 2. Antibodies were titrated starting at a concentration of 10 μg/ml and detected with an anti-human Fc-specific secondary antibody to detect bound primary antibodies. […] Results were analyzed and ranked based on the EC50 values.

[2] = biological target: T2, human Siglec-15, full length, expressed …; experiment: IgG1 titration, flow cytometry on MOLM-13 human Siglec-15 cells
Protocol: Complementary to the ELISA, flow cytometry assays provided insight into the binding behavior of the antibodies on the cell surface. Here, titration of the antibodies began at the same concentration of 10 μg/ml, using MOLM-13 human Siglec-15 and MOLM-13 wild-type cells as a negative control, with detection performed using an anti-human Fc secondary antibody (FIG. 8B).
In the flow cytometry assay, MOLM-13 cells expressing human Siglec-15 and MOLM-13 wild-type cells (negative control) were incubated with titrated antibodies starting at 10 μg/ml. After incubation, cells were washed and incubated with an anti-human Fc-specific secondary antibody conjugated with a fluorescent marker. Flow cytometric analysis was conducted, and fluorescence intensity was used to calculate EC50 values, providing a quantitative assessment of the antibodies' cell surface binding efficacy.

[3] = biological target: T2, human Siglec-15, full length, expressed …; experiment: flow cytometry, HEK293T cells expressing human Siglec-15, anti-human IgG-PE, gMFI
Protocol: (§1) Assessment of the binding of anti-Siglec-15 antibodies to HEK293T cells expressing full length human Siglec-15, or mutant human Siglec-15 (R143A) or the domain 2 of human Siglec-15 by Flow cytometry: Siglec-15+, Siglec-15+R143A, and Siglec-15 Domain 2 (D2) HEK293T cells were detached using tryple and washed once with PBS, resuspended in 1× flow cytometry buffer (PBS with 1% FBS) at approximately 1-2×10\hat{ }6 cells/mL. Then, anti-Siglec-15 mAbs were added to the cell suspension at the desired concentration, starting at 10 μg/mL and performing 1/3 dilutions. Cells were incubated with the indicated antibodies for 30-60 minutes at 4° C. in the dark to prevent degradation of the fluorescent signal. After the primary antibody incubation, cells were washed twice with PBS or flow cytometry buffer by centrifuging at 300-500× g for 5 minutes and the pellet resuspended in fresh buffer. The following antibody was added: anti-human IgG-PE at a 1:500 dilution. Cells were incubated with the secondary antibody for 30 minutes at 4° C. in the dark. Finally, cells were washed twice with PBS or flow cytometry buffer to remove any excess secondary antibody and acquired in a flow cytometer.

[4] = biological target: T3, truncated human Siglec-15 comprising …; experiment: flow cytometry, HEK293T cells expressing only domain 2 of human Siglec-15, fold change of Siglec15 gMFI relative to 2ry control
Protocol: as §1

CD3 on Jurkat cells = biological target: T5, CD3 on Jurkat cells (UniProt P07766 23-207); experiment: flow cytometry, Jurkat cells expressing CD3, gMFI
T5 construct: whole, on cells; Whole CD3 complex on cells; also called CD3-expressing Jurkat cells; Jurkat cells expressing CD3
T5 sequence (P07766 23-207): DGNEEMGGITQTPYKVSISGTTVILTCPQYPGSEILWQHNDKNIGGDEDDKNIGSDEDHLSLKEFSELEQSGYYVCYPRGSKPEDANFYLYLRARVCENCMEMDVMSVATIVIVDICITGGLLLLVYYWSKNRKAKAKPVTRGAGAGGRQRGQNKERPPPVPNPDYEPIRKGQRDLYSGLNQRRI

recombinant CD3 = recombinant CD3 (UniProt P07766 23-126; P09693 23-116); experiment: antibody as ligand, 'Human CD3 epsilon&CD3 gamma' as analyte; legend paragraph 116 says BLI, methods paragraph 422 say Biacore SPR, table in RU
recombinant CD3, sequence (P07766 23-126, form in doubt, chain 1 of 2): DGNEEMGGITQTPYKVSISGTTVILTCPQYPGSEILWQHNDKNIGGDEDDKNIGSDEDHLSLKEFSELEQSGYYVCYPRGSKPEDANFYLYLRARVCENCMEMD
recombinant CD3, sequence (P09693 23-116, form in doubt, chain 2 of 2): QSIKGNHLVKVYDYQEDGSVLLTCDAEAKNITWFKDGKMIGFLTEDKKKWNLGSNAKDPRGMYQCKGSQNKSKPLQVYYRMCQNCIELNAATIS

[5] = biological target: T2, human Siglec-15, full length, expressed …; experiment: flow cytometry, THP-1 cells overexpressing human Siglec-15, ADC titrated, anti-human IgG-PE, gMFI
Protocol: Antibody-drug conjugates (ADCs) with anti-Siglec-15 antibodies and MMAE or Exatecan were prepared and tested for the ability to bind THP-1 cells overexpressing human Siglec-15.
Binding of anti-Siglec-15 ADCs to THP-1 S15+ cells: 50,000 cells/well of THP-1 S15 OE cells were added to a round bottom 96 well plate, centrifuged at 450×G for 5 minutes and the supernatant discarded. […] Cells were incubated for 40 minutes on ice and 100 μl of staining buffer were added to each well, followed by centrifugation at 450×G for 5 minutes and supernatants were discarded. The secondary antibody was prepared (anti-human IgG-PE at 1:500 dilution) and added 100 μl to each well. Cells were incubated for 40 minutes on ice and 100 μl of staining buffer were added to each well followed by centrifugation at 450× G for 5 minutes to then discard the supernatant. Cells were resuspended in 150 μl of staining buffer and acquired in a flow cytometer.

[6] = biological target: T4, recombinant Siglec-15 (bispecific …); experiment: antibody as ligand, human Siglec15 as analyte; legend paragraph 114 says BLI, methods paragraph 422 say Biacore SPR, table in RU

Row | Binder | EC50 (read off the curve) [3] | EC50 (read off the curve) (CD3 on Jurkat cells) | Kd (recombinant CD3) | koff (recombinant CD3) | kon (recombinant CD3) | other results
1 | B1 | ~1 nM | – | – | – | – | EC50 [1]: 0.0753 mg/L; EC50 [2]: 0.181 mg/L; binding result [4]: no binding
2 | B2 | ~0.5 nM | – | – | – | – | –
3 | B3 | – | ~0.2 nM | 67.1 nM | 0.00713 s⁻¹ | 106000 M⁻¹ s⁻¹ | –
4 | B4 | – | – | – | – | – | EC50 (read off the curve) [5]: ~8 nM
5 | B5 | ~1 nM | – | – | – | – | –
6 | B6 | – | ~4 nM | 115 nM | 0.011 s⁻¹ | 95800 M⁻¹ s⁻¹ | Kd [6]: 0.0865 nM; koff [6]: 0.00025 s⁻¹; kon [6]: 2.89e+06 M⁻¹ s⁻¹
